Results on one substance are retold here after article PMC4643347.

Experiment [1] addresses ST50, outer-membrane protein of the multi-drug efflux system from Salmonella enterica serovar Typhi (Salmonella enterica serovar Typhi). Kind of experiment: SEC; Superdex 200 10/30 GL; Tris 20 mM pH 7.5, NaCl 150 mM, β-DDM 0.2%; major fraction at about 220 kDa (trimer plus detergent micelle).
Experiment [2] shares this target. Kind of experiment: crystal structure; ST50 crystallised by hanging-drop vapor diffusion; sodium acetate 100 mM pH 4.6, NaCl 86 mM, PEG 8000 10.4%, β-OG 0.4%, 18 °C; 2.98 Å; three protomers per asymmetric unit.

In the case of “ST50, outer-membrane protein of the multi-drug efflux system from Salmonella enterica serovar Typhi (natural protein)”, the stoichiometry N in experiment [1] and in experiment [2] was 3 throughout.
